Experimental findings from patent US9073974B2, “RGD-containing cyclic peptides” (The Regents of the University of California, priority 2009, dated 2015) are described below.

Numbered stars: 1 amine (or outer) side, 2 acyl side, 3 side chain; on linkers, the order of the positions; unused ones are H or OH. Bridge positions count the residues as written; N and C are the ends. Square brackets hold non-standard residues; d marks the D form. Primed or numbered codes have the meaning given here. Side chains are listed from the residue outwards. Ends that are not written are not given here. Ebes = 2,2'-ethylenedioxy bis(ethylamine) monosuccinamide; N(CH2CH2CO)Gly = O=C(CN(CCC(=O)[*:3])[*:1])[*:2]; Pro(5R-Ph) = O=C(O)[C@@H]1CC[C@H](c2ccccc2)N1; dAla(4-thiazolyl) = N[C@H](Cc1cscn1)C(=O)O; d(αMeV) = CC(C)[C@@](C)(N)C(=O)O; dCit = NC(=O)NCCC[C@@H](N)C(=O)O; Suc = O=C(CCC(=O)[*:2])[*:1]; Ebes″ = not defined here

Test [1] addresses T1, αvβ3 integrin (human, UniProt P06756 31-1048; P05106 27-788).
T1 construct: whole, on cells; Same entry used for αvβ3-K562, U-87 MG and A375M cells; also called αvβ3-K562; αvβ3 transfected K562 cells
The test is described as follows: flow cytometry, competition with biotinylated LXW7 on αvβ3-K562 cells; + = IC50 >10 µM.

Test [2] deals with T1, αvβ3 integrin. The test is described as follows: flow cytometry, competition with FITC-Echistatin on αvβ3-K562 cells; ++ = IC50 1-10 µM.
Test [3] concerns the target T2, αvβ3 integrin (human), P06756.
T2 chain 1: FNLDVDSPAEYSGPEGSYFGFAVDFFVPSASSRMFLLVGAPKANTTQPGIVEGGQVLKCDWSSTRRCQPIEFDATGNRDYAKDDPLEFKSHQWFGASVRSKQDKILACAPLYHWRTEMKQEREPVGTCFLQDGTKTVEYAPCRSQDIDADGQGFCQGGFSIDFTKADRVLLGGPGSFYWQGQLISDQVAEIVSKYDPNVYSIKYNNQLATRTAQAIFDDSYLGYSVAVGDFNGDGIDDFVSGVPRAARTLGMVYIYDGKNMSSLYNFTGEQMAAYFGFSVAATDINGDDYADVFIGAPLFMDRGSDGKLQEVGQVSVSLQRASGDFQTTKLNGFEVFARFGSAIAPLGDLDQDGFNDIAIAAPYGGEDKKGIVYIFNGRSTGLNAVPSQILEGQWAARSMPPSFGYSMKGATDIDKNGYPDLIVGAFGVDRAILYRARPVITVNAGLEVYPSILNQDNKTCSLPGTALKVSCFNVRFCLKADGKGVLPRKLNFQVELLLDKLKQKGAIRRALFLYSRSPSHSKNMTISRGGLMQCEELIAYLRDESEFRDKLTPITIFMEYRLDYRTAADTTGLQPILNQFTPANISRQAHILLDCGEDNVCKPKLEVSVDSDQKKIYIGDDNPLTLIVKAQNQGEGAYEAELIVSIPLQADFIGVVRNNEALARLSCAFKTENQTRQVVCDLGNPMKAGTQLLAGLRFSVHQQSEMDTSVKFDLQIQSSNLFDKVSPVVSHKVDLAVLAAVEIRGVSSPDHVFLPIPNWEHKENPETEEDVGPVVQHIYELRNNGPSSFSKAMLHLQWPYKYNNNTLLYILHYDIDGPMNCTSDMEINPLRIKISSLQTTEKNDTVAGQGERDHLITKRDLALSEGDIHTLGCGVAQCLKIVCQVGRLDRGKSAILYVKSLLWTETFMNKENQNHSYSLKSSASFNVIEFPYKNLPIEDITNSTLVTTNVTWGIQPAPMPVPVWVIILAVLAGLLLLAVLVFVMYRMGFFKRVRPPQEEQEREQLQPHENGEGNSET
T2 chain 2: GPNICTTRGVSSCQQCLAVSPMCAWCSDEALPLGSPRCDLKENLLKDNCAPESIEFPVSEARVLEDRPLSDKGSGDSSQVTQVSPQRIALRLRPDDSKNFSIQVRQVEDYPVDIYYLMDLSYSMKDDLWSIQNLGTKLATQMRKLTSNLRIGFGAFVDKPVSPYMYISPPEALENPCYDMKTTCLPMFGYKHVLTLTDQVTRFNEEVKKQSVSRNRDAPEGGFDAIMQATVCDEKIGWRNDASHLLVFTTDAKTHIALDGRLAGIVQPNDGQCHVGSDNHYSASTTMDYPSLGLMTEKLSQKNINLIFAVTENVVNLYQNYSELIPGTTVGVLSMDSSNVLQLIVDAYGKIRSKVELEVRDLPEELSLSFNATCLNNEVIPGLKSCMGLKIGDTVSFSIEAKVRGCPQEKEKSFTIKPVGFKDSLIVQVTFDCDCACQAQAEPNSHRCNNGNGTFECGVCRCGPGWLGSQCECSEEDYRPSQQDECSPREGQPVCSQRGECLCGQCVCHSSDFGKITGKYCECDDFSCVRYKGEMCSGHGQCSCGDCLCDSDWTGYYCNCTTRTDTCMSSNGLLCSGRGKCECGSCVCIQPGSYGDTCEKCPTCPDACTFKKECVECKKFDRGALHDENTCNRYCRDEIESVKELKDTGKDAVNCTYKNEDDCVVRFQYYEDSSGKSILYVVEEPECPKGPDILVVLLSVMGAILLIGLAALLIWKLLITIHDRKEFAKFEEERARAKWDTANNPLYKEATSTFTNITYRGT
The test is described as follows: flow cytometry, competition with FITC-Echistatin on αvβ3-K562 cells. The note with it: remark: other sources report otherwise.

Test [4] has as its target T1, αvβ3 integrin. The test is described as above.
The target of test [5] is T1, αvβ3 integrin. The test is described as above. This is another data set of the same source.
In test [6] the target is T1, αvβ3 integrin. The test is described as follows: flow cytometry, competition with FITC-Echistatin on αvβ3-K562 cells; +++ = IC50 <1 µM.
Test [7] addresses T1, αvβ3 integrin. The test is described as follows: flow cytometry, competition with FITC-Echistatin on αvβ3-K562 cells. The source holds these as a separate data set.
Test [8] concerns the target T1, αvβ3 integrin. The test is described as follows: flow cytometry, competition with biotinylated LXW7 on αvβ3-K562 cells (internal reference).
For test [9], the target named is T1, αvβ3 integrin. The test is described as follows: flow cytometry, saturation binding of LXW7-Bio on A375M cells.
Test [10] deals with T1, αvβ3 integrin. The test is described as follows: flow cytometry, saturation binding of LXW7-Bio on U-87 MG cells.
The target of test [11] is T1, αvβ3 integrin. The test is described as follows: flow cytometry, saturation binding of LXW7-Bio on αvβ3-K562 cells.
For test [12], the target named is T1, αvβ3 integrin. The test is described as follows: flow cytometry, saturation binding of LXW7-Bio on A375M cells, streptavidin-PE, nonspecific binding with 100 µM LXW7 subtracted.
The target in test [13] is T1, αvβ3 integrin. The test is described as follows: flow cytometry, saturation binding of LXW7-Bio on U-87 MG cells, streptavidin-PE, nonspecific binding with 100 µM LXW7 subtracted.
In test [14] the target is T1, αvβ3 integrin. The test is described as follows: flow cytometry, saturation binding of LXW7-Bio on αvβ3-K562 cells, streptavidin-PE, nonspecific binding with 100 µM LXW7 subtracted.

B1: LXW72 (peptide)
peptide: [dC]GRGD[N(CH2CH2CO)Gly][Pro(5R-Ph)][dC]-NH2
modifications: disulfide 1-8; N-terminus assumed
SMILES: N=C(N)NCCC[C@@H]1NC(=O)CNC(=O)[C@H](N)CSSC[C@H](C(N)=O)NC(=O)[C@@H]2CC[C@H](c3ccccc3)N2C(=O)CN(CCC(=O)O)C(=O)[C@H](CC(=O)O)NC(=O)CNC1=O
notes: also called cGRGD-NGlu-Ppca-c
For B1, the IC50 with αvβ3 integrin [1] is above 10000 nM.

B2: LXW2 (peptide)
peptide: [dC]GRGD[dD][dF][dC]-NH2
modifications: disulfide 1-8; N-terminus assumed
SMILES: N=C(N)NCCC[C@@H]1NC(=O)CNC(=O)[C@H](N)CSSC[C@H](C(N)=O)NC(=O)[C@@H](Cc2ccccc2)NC(=O)[C@@H](CC(=O)O)NC(=O)[C@H](CC(=O)O)NC(=O)CNC1=O
For B2, the IC50 with αvβ3 integrin [2] lay in the range of 1000 to 10000 nM.

B3: cyclo (RGDfK)-Bio (peptide)
peptide: cyclo(RGD[dF]K([Suc-Ebes″-Lys(biotin)NH2]))
modifications: reading uncertain
In test [3], B3 gave an IC50 of 1370 nM.

B4: LXW5 (peptide)
peptide: [dC]GRGD[dD][dS][dC]-NH2
modifications: disulfide 1-8; N-terminus assumed
SMILES: N=C(N)NCCC[C@@H]1NC(=O)CNC(=O)[C@H](N)CSSC[C@H](C(N)=O)NC(=O)[C@@H](CO)NC(=O)[C@@H](CC(=O)O)NC(=O)[C@H](CC(=O)O)NC(=O)CNC1=O
Regarding B4, the IC50 with αvβ3 integrin [2] is 1000 to 10000 nM.

B5: LXW23 (peptide)
peptide: [dC]GRGD[dD][d(αMeV)][dC]-NH2
modifications: disulfide 1-8; N-terminus assumed
SMILES: CC(C)[C@@]1(C)NC(=O)[C@@H](CC(=O)O)NC(=O)[C@H](CC(=O)O)NC(=O)CNC(=O)[C@H](CCCNC(=N)N)NC(=O)CNC(=O)[C@H](N)CSSC[C@H](C(N)=O)NC1=O
Turning to B5, the half-maximal inhibitory concentration (IC50) with αvβ3 integrin [1] was above 10000 nM.

B6: LXW70 (peptide)
peptide: [dC]GRGD[dCit][Pro(5R-Ph)][dC]-NH2
modifications: disulfide 1-8; N-terminus assumed
SMILES: N=C(N)NCCC[C@@H]1NC(=O)CNC(=O)[C@H](N)CSSC[C@H](C(N)=O)NC(=O)[C@@H]2CC[C@H](c3ccccc3)N2C(=O)[C@@H](CCCNC(N)=O)NC(=O)[C@H](CC(=O)O)NC(=O)CNC1=O
For B6, the IC50 with αvβ3 integrin [1] is above 10000 nM.

B7: LXW39 (peptide)
peptide: CGRGD[dD][dAla(4-thiazolyl)]C-NH2
modifications: disulfide 1-8; N-terminus assumed
SMILES: N=C(N)NCCC[C@@H]1NC(=O)CNC(=O)[C@@H](N)CSSC[C@@H](C(N)=O)NC(=O)[C@@H](Cc2cscn2)NC(=O)[C@@H](CC(=O)O)NC(=O)[C@H](CC(=O)O)NC(=O)CNC1=O
notes: also called CGRGDd-DTha-C
As for B7, the IC50 with αvβ3 integrin [1] is above 10000 nM.

B8: cyclo (RGDfE)-Bio (peptide)
peptide: cyclo(RGD[dF]E([Ebes-Ebes-Lys(biotin) amide]))
notes: also called Biotinylated Cyclo(RGDfE)
For the molecule B8, the “fold decrease in affinity on biotinylation (against the non-biotinylated form)” value with αvβ3 integrin [4] was 2 to 8 fold. Further, the IC50 in the test with αvβ3 integrin [5] was 4700 nM.

B9: cyclo(RGDfE) (peptide)
peptide: cyclo(RGD[dF]E)
SMILES: N=C(N)NCCC[C@@H]1NC(=O)[C@H](CCC(=O)O)NC(=O)[C@@H](Cc2ccccc2)NC(=O)[C@H](CC(=O)O)NC(=O)CNC1=O
The molecule B9 yielded an IC50 with αvβ3 integrin [5] of 600 nM.

B10: LXW3 (peptide)
peptide: [dC]GRGD[dS][dE][dC]-NH2
modifications: disulfide 1-8; N-terminus assumed
SMILES: N=C(N)NCCC[C@@H]1NC(=O)CNC(=O)[C@H](N)CSSC[C@H](C(N)=O)NC(=O)[C@@H](CCC(=O)O)NC(=O)[C@@H](CO)NC(=O)[C@H](CC(=O)O)NC(=O)CNC1=O
With B10, in the test with αvβ3 integrin [6], the IC50 is below 1000 nM.

B11: LXW7 (peptide)
peptide: [dC]GRGD[dD][dV][dC]-NH2
modifications: disulfide 1-8; N-terminus assumed
SMILES: CC(C)[C@H]1NC(=O)[C@@H](CC(=O)O)NC(=O)[C@H](CC(=O)O)NC(=O)CNC(=O)[C@H](CCCNC(=N)N)NC(=O)CNC(=O)[C@H](N)CSSC[C@H](C(N)=O)NC1=O
For B11, the figures for the IC50 with αvβ3 integrin [7], with αvβ3 integrin [6] and in the test with αvβ3 integrin [8] were 680 nM, below 1000 nM and 590 nM, respectively.

B12: LXW1 (peptide)
peptide: [dC]GRGD[dS][dF][dC]-NH2
modifications: disulfide 1-8; N-terminus assumed
SMILES: N=C(N)NCCC[C@@H]1NC(=O)CNC(=O)[C@H](N)CSSC[C@H](C(N)=O)NC(=O)[C@@H](Cc2ccccc2)NC(=O)[C@@H](CO)NC(=O)[C@H](CC(=O)O)NC(=O)CNC1=O
Consider B12, for which, in the test with αvβ3 integrin [2], the IC50 lay in the range of 1000 to 10000 nM.

B13: Biotinylated cyclo(cGRGDdvc) (peptide)
peptide: [dC]GRGD[dD][dV][dC]-{Ebes-Ebes-K(biotin)-NH2}
modifications: disulfide 1-8
Consider B13, for which the Bmax with αvβ3 integrin [9] worked out at 71 A.U; in the test with αvβ3 integrin [10] it was 86 A.U; with αvβ3 integrin [11], 1390 A.U. In the test with αvβ3 integrin [7], this molecule displayed an IC50 of 620 nM. Further, the Kd with αvβ3 integrin [12] was 89 nM; in the test with αvβ3 integrin [13], 72 nM; with αvβ3 integrin [14] it was 76 nM.
